Experimental findings from patent US20230159961A1, “BIOSYNTHESIS OF CHEMICALLY DIVERSIFIED NON-NATURAL TERPENE PRODUCTS” (Board of Trustees of Michigan State University, priority 2019, published 2023) are described below.

Experiment [1] concerns Coleus forskohlii CfTPS2 and Salvia sclarea SsSCS. Briefly: coupled class II / class I in vitro assay with methyl-GGDP (C21) substrate. The experiment is classed as biochemical. To be noted: CfTPS2 and SsSCS used together; product structure similar to sclareol (FIG. 10). How it is done:
A typical high-throughput in vitro diTPS assay in lml contained 5 μg substrate, 200 μg purified enzyme (class II plus class I for labdanoid-type diterpenes, or class I for irregular diterpenes), and 10mM buffer with magnesium. Reactions are carried out for 1 hour at 16° C., followed by vortexing with an equal volume of hexane to extract the products into the organic phase, prior to removal for GC/MS analysis.
Reactions leading to novel compounds can be scaled up for structural elucidation. The scale-up procedure involved the same composition. However, in coupled assays of pairs of diTPS, the class II enzyme may be pre-incubated with substrate for two hours, before adding the class I diTPS.
Enzymes Coleus forskohlii CfTPS2 (SEQ ID NO:69) and Salvia sclarea SsSCS (SEQ ID NO:61) were coupled in an in vitro assay to ascertain whether the synthetic unnatural methyl-GGDP (C21) substrate can efficiently yield the corresponding C21 methyl-diterpene.

Experiment [2] deals with DgTPS1 (casbene synthase). The experiment is described as follows: in vitro diTPS assay: casbene synthase DgTPS1 reacted with unGGPP, products by GC/MS. In kind it is biochemical, Daphne genkwa. To be noted: product mass consistent with a methyl-derivative of casbene. How it is done: A conserved irregular, macrocyclic structure is consistent with the fragmentation pattern of the major fragments of casbene (FIG. 5C-5D).
To assess substrate tolerance of class II diTPS, substrates are screened against a panel of twenty-five enzymes. Recombinant diTPS were expressed heterologously in E. coli, purified, and reconstituted in in vitro assays with the substrate to be tested. The products from the enzymatic action on the substrate were analyzed structural elucidation and downstream functionalization.
In particular, pET28b+plasmids containing N-terminally truncated diTPS variants (having the plastidial targeting signal removed to generate pseudomature enzymes) are transformed into E. coli BL-21DE3-C41 OverExpress cells. Cultures are grown at 37° C. and 180 rpm until the optical density at 600 nm reached 0.3 to 0.4. Cultures are cooled to 16° C., and expression is induced at an optical density at 600 nm of approximately 0.6 with 0.2 mM isopropylthiogalactoside. Cells are collected and lysed before purification of the His6-tagged enzymes with Ni-NTA columns.
A typical high-throughput in vitro diTPS assay in lml contained 5 μg substrate, 200 μg purified enzyme (class II plus class I for labdanoid-type diterpenes, or class I for irregular diterpenes), and 10mM buffer with magnesium. […]

Experiment [3] has as its system class I labdane-type diTPS. The experiment is described as follows: class I labdane-type diTPS and tested substrates converted (Table 2). In kind it is biochemical. To be noted: decalin-core diphosphate substrates that the enzyme converted, enzymes functionally expressed. The source says: Instead of accepting the acyclic GGPP, class I enzymes can use structurally diverse decalin-core diphosphate intermediates generated by class II enzymes. At this stage, additional cyclizations, double-bond-, hydride and alkyl shifts can occur, followed by either proton abstraction or quenching of the final carbocation through a water molecule.
All enzymes in Table 2 were functionally expressed. Microbial sequences were expressed as synthetic variants, expression optimized for E. coli. See also FIG. 7.

With `CC(C)=CCC/C(C)=C/CC/C(C)=C/CC/C(C)=C(\C)COP(=O)(O)OP(=O)(O)O` [methyl-GGDP (C21)], the “product formation in coupled enzyme assay” value in experiment [1] is “new methyl-diterpene product”. Take `CC(C)=CCC/C(C)=C/CC/C(C)=C/CC/C(C)=C(\C)COP(=O)(O)OP(=O)(O)O` [unGGPP]: the “conversion of substrate to product, detected by gas chromatography / GC-MS” value in experiment [2] is reported as “novel product with a shifted retention time”.

B1: KgTPS2 (protein, listed as Kitasatospora griseola)
chain: MPDAIEFEHEGRRNPNSAEAESAYSSIIAALDLQESDYAVISGHSRIVGAAALVYPDADAETLLAASLWTACLIVNDDRWDYVQEDGGRLAPGEWFDGVTEVVDTWRTAGPRLPDPFFELVRTTMSRLDAALGAEAADEIGHEIKRAITAMKWEGVWNEYTKKTSLATYLSFRRGYCTMDVQVVLDKWINGGRSFAALRDDPVRRAIDDVVVRFGCLSNDYYSWGREKKAVDKSNAVRILMDHAGYDESTALAHVRDDCVQAITDLDCIEESIKRSGHLGSHAQELLDYLACHRPLIYAAATWPTETNRYR
For the molecule B1, the “Substrate (tested substrates converted)” value in experiment [3] is given as “ent-, syn-, (+)-CPP, (+)-8-LPP, ent-8-LPP, KPP, 9-LPP”.

B2: ArTPS3 (protein)
chain: MSLSFTIKVTPFSGQRVHSSTESFPIQQFPTITTKSAMAVKCSSLSTATVSFQDFVGKIRDTINGKVDNSPAATTIHPADIPSNLCVVDTLQRLGVDRYFQSEIDSVLNDTYRFWQQKGEDIFTDVACRAMAFRLLRVKGYEVSSDELASYAEQEHVNLQPSDITTVIELYRASQTRLYEDEGNLEKLHTWTSNFLKQQLQSETISDEKLHKQVEYYLKNYHGILDRAGVRQSLDLYDINQYQNLKSTDRFPTLSNEDLLEFAKQDFNFCQAQHQKELQQLQRWYADCKLDTLTYGRDVVRVASFLTAAIFGEPEFSDARLAFAKHIILVTRIDDFFDHGGSIEESYKILDLVKEWEDKPAEEYPSKEVEILFTAVYNTVNDLAEMAYIEQGRSIKPLLIKLWVEILTSFKKELDSWTEDTELTLEEYLASSWVSIGCRICSLNSLQFLGITLSEEMLSSEECMELCRHVSSVDRLLNDVQTFEKERLENTINSVSLQLAEAQREGRTITEEEAMSKIKDLADYHRRQLMQMVYKDGTIFPRQCKDVFLRVCRIGYYLYASGDEFTTPQQMMGDMKSLVYEPLNTSSS
modifications: Ajuga reptans
On to B2, for which the “Substrate (tested substrates converted)” value in experiment [3] is recorded as “PgPP, (+)-CPP, (+)-8-LPP, ent-CPP”.

B3: SsSCS (protein, listed as Salvia sclarea)
chain: MSLAFNVGVTPFSGQRVGSRKEKFPVQGFPVTTPNRSRLIVNCSLTTIDFMAKMKENFKREDDKFPTTTTLRSEDIPSNLCIIDTLQRLGVDQFFQYEINTILDNTFRLWQEKHKVIYGNVTTHAMAFRLLRVKGYEVSSEELAPYGNQEAVSQQTNDLPMIIELYRAANERIYEEERSLEKILAWTTIFLNKQVQDNSIPDKKLHKLVEFYLRNYKGITIRLGARRNLELYDMTYYQALKSTNRFSNLCNEDFLVFAKQDFDIHEAQNQKGLQQLQRWYADCRLDTLNFGRDVVIIANYLASLIIGDHAFDYVRLAFAKTSVLVTIMDDFFDCHGSSQECDKIIELVKEWKENPDAEYGSEELEILFMALYNTVNELAERARVEQGRSVKEFLVKLWVEILSAFKIELDTWSNGTQQSFDEYISSSWLSNGSRLTGLLTMQFVGVKLSDEMLMSEECTDLARHVCMVGRLLNDVCSSEREREENIAGKSYSILLATEKDGRKVSEDEAIAEINEMVEYHWRKVLQIVYKKESILPRRCKDVFLEMAKGTFYAYGINDELTSPQQSKEDMKSFVF
Regarding B3, the “Substrate (tested substrates converted)” value in experiment [3] is recorded as “ent-, syn-, (+)-CPP, (+)-8-LPP, ent-8-LPP, KPP, 9-LPP”.
